Series [1] relates to HeLa Kyoto. The series can be described thus: solubility change mitosis vs G1/S (difference of NP-40 vs SDS log2 ratios) (log2 ratio difference); higher = more soluble in mitosis.
In series [2] the test system is HeLa Kyoto. The series can be described thus: solubility in G1/S (NP-40 vs SDS abundance) (log2 ratio); higher = more soluble. As to conditions: cell cycle stage: G1/S.
Series [3] relates to HeLa Kyoto. The series can be described thus: melting temperature (median over replicates), in situ; higher = more thermally stable.
Series [4] concerns HeLa Kyoto. Put plainly: thermal stability score vs G1/S (z-score of summed log2 fold changes over temperatures); higher = more thermally stable than in G1/S.
Where [5] appears, read: cell cycle stage: early G1 (4.5 h after nocodazole release).
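Throughout, for melting temperature (median over replicates), in situ: HeLa Kyoto cells synchronized by double thymidine or nocodazole block, proteins quantified by TMT10plex mass spectrometry, three independent biological replicates.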
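Throughout, for solubility change mitosis vs G1/S (difference of NP-40 vs SDS log2 ratios): synchronized HeLa Kyoto cells (double thymidine block for G1/S, nocodazole release for mitosis), protein amounts in NP-40 versus SDS lysates quantified by mass spectrometry, three biological replicates.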
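Throughout, for solubility in G1/S (NP-40 vs SDS abundance): HeLa Kyoto cells arrested at G1/S by double thymidine block, proteins quantified by TMT10plex mass spectrometry in mild NP-40 versus SDS extracts, three biological replicates.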
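Throughout, for thermal stability score vs G1/S (z-score of summed log2 fold changes over temperatures): synchronized HeLa Kyoto cells, proteins quantified by TMT10plex mass spectrometry, three biological replicates, mitosis taken 0.5 h after nocodazole release, G1/S directly after double thymidine block.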

Consider “MEKRLGVKPNPASWILSGYYWQTSAKWLRSLYLFYTCFCFSVLWLSTDASESRCQQGKTQFGVGLRSGGENHLWLLEGTPSLQSCWAACCQDSACHVFWWLEGMCIQADCSRPQSCRAFRTHSSNSMLVFLKKFQTADDLGFLPEDDVPHLLGLGWNWASWRQSPPRAALRPAVSSSDQQSLIRKLQKRGSPSDVVTPIVTQHSKVNDSNELGGLTTSGSAEVHKAITISSPLTTDLTAELSGGPKNVSVQPEISEGLATTPSTQQVKSSEKTQIAVPQPVAPSYSYATPTPQASFQSTSAPYPVIKELVVSAGESVQITLPKNEVQLNAYVLQEPPKGETYTYDWQLITHPRDYSGEMEGKHSQILKLSKLTPGLYEFKVIVEGQNAHGEGYVNVTVKPEPRKNRPPIAIVSPQFQEISLPTTSTVIDGSQSTDDDKIVQYHWEELKGPLREEKISEDTAILKLSKLVPGNYTFSLTVVDSDGATNSTTANLTVNKAVDYPPVANAGPNQVITLPQNSITLFGNQSTDDHGITSYEWSLSPSSKGKVVEMQGVRTPTLQLSAMQEGDYTYQLTVTDTIGQQATAQVTVIVQPENNKPPQADAGPDKELTLPVDSTTLDGSKSSDDQKIISYLWEKTQGPDGVQLENANSSVATVTGLQVGTYVFTLTVKDERNLQSQSSVNVIVKEEINKPPIAKITGNVVITLPTSTAELDGSKSSDDKGIVSYLWTRDEGSPAAGEVLNHSDHHPILFLSNLVEGTYTFHLKVTDAKGESDTDRTTVEVKPDPRKNNLVEIILDINVSQLTERLKGMFIRQIGVLLGVLDSDIIVQKIQPYTEQSTKMVFFVQNEPPHQIFKGHEVAAMLKSELRKQKADFLIFRALEVNTVTCQLNCSDHGHCDSFTKRCICDPFWMENFIKVQLRDGDSNCEWSVLYVIIATFVIVVALGILSWTVICCCKRQKGKPKRKSKYKILDATDQESLELKPTSRAGIKQKGLLLSSSLMHSESELDSDDAIFTWPDREKGKLLHGQNGSVPNGQTPLKARSPREEIL [KIAA0319L]”, for which the “solubility change mitosis (log2)” value with HeLa Kyoto [1] was found to be 0.0841. In the series on HeLa Kyoto [2], the “solubility in G1/S (log2)” value turned out to be 0.0342. For the same sequence, the figures for the melting temperature in the series with HeLa Kyoto [3] (cell cycle stage: G1/S) and with HeLa Kyoto [3] (cell cycle stage: mitosis) were 58.5 °C and 56.2 °C, respectively. Besides, the thermal stability score with HeLa Kyoto [4] (setting [5]) is -3.99; with HeLa Kyoto [4] (cell cycle stage: mitosis) it was -5.23.
With “MPSKKKKYNARFPPARIKKIMQTDEEIGKVAAAVPVIISRALELFLESLLKKACQVTQSRNAKTMTTSHLKQCIELEQQFDFLKDLVASVPDMQGDGEDNHMDGDKGARRGRKPGSGGRKNGGMGTKSKDKKLSGTDSEQEDESEDTDTDGEEETSQPPPQASHPSAHFQSPPTPFLPFASTLPLPPAPPGPSAPDEEDEEDYDS [DRAP1]”, the “solubility change mitosis (log2)” value with HeLa Kyoto [1] is 0.215. For the same sequence, the “solubility in G1/S (log2)” value in the series with HeLa Kyoto [2] was 0.748. Moreover, the figures for the melting temperature in the series on HeLa Kyoto [3] (cell cycle stage: G1/S) and in the series with HeLa Kyoto [3] (cell cycle stage: mitosis) were 56.9 °C and 55.7 °C, respectively. Besides, the thermal stability score was -2.19 in the series with HeLa Kyoto [4] (setting [5]) and -2.89 in the series on HeLa Kyoto [4] (cell cycle stage: mitosis).
On to “MYATDSRGHSPAFLQPQNGNSRHPSGYVPGKVVPLRPPPPPKSQASAKFTSIRREDRATFAFSPEEQQAQRESQKQKRHKNTFICFAITSFSFFIALAIILGISSKYAPDENCPDQNPRLRNWDPGQDSAKQVVIKEGDMLRLTSDATVHSIVIQDGGLLVFGDNKDGSRNITLRTHYILIQDGGALHIGAEKCRYKSKATITLYGKSDEGESMPTFGKKFIGVEAGGTLELHGARKASWTLLARTLNSSGLPFGSYTFEKDFSRGLNVRVIDQDTAKILESERFDTHEYRNESRRLQEFLRFQDPGRIVAIAVGDSAAKSLLQGTIQMIQERLGSELIQGLGYRQAWALVGVIDGGSTSCNESVRNYENHSSGGKALAQREFYTVDGQKFSVTAYSEWIEGVSLSGFRVEVVDGVKLNLLDDVSSWKPGDQIVVASTDYSMYQAEEFTLLPCSECSHFQVKVKETPQFLHMGEIIDGVDMRAEVGILTRNIVIQGEVEDSCYAENQCQFFDYDTFGGHIMIMKNFTSVHLSYVELKHMGQQQMGRYPVHFHLCGDVDYKGGYRHATFVDGLSIHHSFSRCITVHGTNGLLIKDTIGFDTLGHCFFLEDGIEQRNTLFHNLGLLTKPGTLLPTDRNNSMCTTMRDKVFGNYIPVPATDCMAVSTFWIAHPNNNLINNAAAGSQDAGIWYLFHKEPTGESSGLQLLAKPELTPLGIFYNNRVHSNFKAGLFIDKGVKTTNSSAADPREYLCLDNSARFRPHQDANPEKPRVAALIDRLIAFKNNDNGAWVRGGDIIVQNSAFADNGIGLTFASDGSFPSDEGSSQEVSESLFVGESRNYGFQGGQNKYVGTGGIDQKPRTLPRNRTFPIRGFQIYDGPIHLTRSTFKKYVPTPDRYSSAIGFLMKNSWQITPRNNISLVKFGPHVSLNVFFGKPGPWFEDCEMDGDKNSIFHDIDGSVTGYKDAYVGRMDNYLIRHPSCVNVSKWNAVICSGTYAQVYVQTWSTQNLSMTITRDEYPSNPMVLRGINQKAAFPQYQPVVMLEKGYTIHWNGPAPRTTFLYLVNFNKNDWIRVGLCYPSNTSFQVTFGYLQRQNGSLSKIEEYEPVHSLEELQRKQSERKFYFDSSTGLLFLYLKAKSHRHGHSYCSSQGCERVKIQAATDSKDISNCMAKAYPQYYRKPSVVKRMPAMLTGLCQGCGTRQVVFTSDPHKSYLPVQFQSPDKAETQRGDPSVISVNGTDFTFRSAGVLLLVVDPCSVPFRLTEKTVFPLADVSRIEEYLKTGIPPRSIVLLSTRGEIKQLNISHLLVPLGLAKPAHLYDKGSTIFLGFSGNFKPSWTKLFTSPAGQGLGVLEQFIPLQLDEYGCPRATTVRRRDLELLKQASKAH [TMEM2]”, for which the “solubility change mitosis (log2)” value in the series on HeLa Kyoto [1] is -0.018. Also, the “solubility in G1/S (log2)” value in the series with HeLa Kyoto [2] was found to be 0.114. For the same sequence, the melting temperature turned out to be 55.3 °C with HeLa Kyoto [3] (cell cycle stage: G1/S) and 55.5 °C with HeLa Kyoto [3] (cell cycle stage: mitosis). Also, the values for the thermal stability score in the series with HeLa Kyoto [4] (setting [5]) and in the series with HeLa Kyoto [4] (cell cycle stage: mitosis) were -1.5 and -0.419, respectively.
“MAAAGLVAVAAAAEYSGTVASGGNLPGVHCGPSSGAGPGFGPGSWSRSLDRALEEAAVTGVLSLSGRKLREFPRGAANHDLTDTTRADLSRNRLSEIPIEACHFVSLENLNLYQNCIRYIPEAILNLQALTFLNISRNQLSTLPVHLCNLPLKVLIASNNKLVSLPEEIGHLRHLMELDVSCNEIQTIPSQIGNLEALRDLNVRRNHLVHLPEELAELPLIRLDFSCNKITTIPVCYRNLRHLQTITLDNNPLQSPPAQICIKGKVHIFKYLNIQACKIAPDLPDYDRRPLGFGSCHEELYSSRPYGALDSGFNSVDSGDKRWSGNEPTDEFSDLPLRVAEITKEQRLRRESQYQENRGSLVVTNGGVEHDLDQIDYIDSCTAEEEEAEVRQPKGPDPDSLSSQFMAYIEQRRISHEGSPVKPVAIREFQKTEDMRRYLHQNRVPAEPSSLLSLSASHNQLSHTDLELHQRREQLVERTRREAQLAALQYEEEKIRTKQIQRDAVLDFVKQKASQSPQKQHPLLDGVDGECPFPSRRSQHTDDSALCMSLSGLNQVGCAATLPHSSAFTPLKSDDRPNALLSSPATETVHHSPAYSFPAAIQRNQPQRPESFLFRAGVRAETNKGHASPLPPSAAPTTDSTDSITGQNSRQREEELELIDQLRKHIEYRLKVSLPCDLGAALTDGVVLCHLANHVRPRSVPSIHVPSPAVPKLTMAKCRRNVENFLEACRKIGVPQEQLCLPLHILEEKGLSQVAVTVQALLELAPPKQQQHQLSAV [LRCH3]”: in the series on HeLa Kyoto [1], the “solubility change mitosis (log2)” value was -0.0597. For the same sequence, the “solubility in G1/S (log2)” value in the series on HeLa Kyoto [2] was 0.108. Also, the melting temperature was determined as 46.9 °C in the series on HeLa Kyoto [3] (cell cycle stage: G1/S) and 48.8 °C in the series on HeLa Kyoto [3] (cell cycle stage: mitosis). Also, the thermal stability score with HeLa Kyoto [4] (setting [5]) is 0.000114; in the series on HeLa Kyoto [4] (cell cycle stage: mitosis), 1.36.

The record behind these values is the supplement of paper PMC5998384.
